Measured values published in patent publication US20240035010, “COMPOSITIONS COMPRISING A VARIANT POLYPEPTIDE AND USES THEREOF” (Arbor Biotechnologies, Inc., published 2024).

Columns and labels:
Experiment in all cases: cell_activity; PAM 5'-ATTG-3'
Conditions in all cases: tags: pcDNA3.1 expression
[1] = target: T1, variant nuclease D55G/E736G combination (P14R, D32R, I61R, E311R, D55G, E736G)
T1 chain: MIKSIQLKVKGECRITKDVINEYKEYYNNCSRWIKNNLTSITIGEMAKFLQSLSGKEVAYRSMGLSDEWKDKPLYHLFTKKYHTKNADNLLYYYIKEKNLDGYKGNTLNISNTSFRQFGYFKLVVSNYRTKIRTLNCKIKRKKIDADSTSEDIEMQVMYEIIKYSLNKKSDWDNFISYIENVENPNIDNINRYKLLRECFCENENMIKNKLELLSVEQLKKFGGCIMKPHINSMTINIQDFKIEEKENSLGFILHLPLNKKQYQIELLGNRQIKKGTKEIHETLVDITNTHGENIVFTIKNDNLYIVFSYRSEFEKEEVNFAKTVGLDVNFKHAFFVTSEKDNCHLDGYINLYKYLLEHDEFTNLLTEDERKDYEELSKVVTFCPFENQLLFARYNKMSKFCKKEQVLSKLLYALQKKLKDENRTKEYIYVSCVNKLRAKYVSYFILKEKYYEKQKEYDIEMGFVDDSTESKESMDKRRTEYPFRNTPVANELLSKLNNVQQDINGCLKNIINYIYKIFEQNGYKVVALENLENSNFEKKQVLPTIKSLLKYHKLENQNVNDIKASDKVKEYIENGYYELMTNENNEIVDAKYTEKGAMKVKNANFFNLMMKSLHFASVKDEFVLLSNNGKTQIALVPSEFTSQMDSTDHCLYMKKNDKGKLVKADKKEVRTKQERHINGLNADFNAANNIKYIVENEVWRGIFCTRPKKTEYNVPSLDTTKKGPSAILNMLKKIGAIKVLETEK

[2] = target: T2, variant nuclease D590G combination (P14R, D32R, I61R, E311R, D590G)
T2 chain: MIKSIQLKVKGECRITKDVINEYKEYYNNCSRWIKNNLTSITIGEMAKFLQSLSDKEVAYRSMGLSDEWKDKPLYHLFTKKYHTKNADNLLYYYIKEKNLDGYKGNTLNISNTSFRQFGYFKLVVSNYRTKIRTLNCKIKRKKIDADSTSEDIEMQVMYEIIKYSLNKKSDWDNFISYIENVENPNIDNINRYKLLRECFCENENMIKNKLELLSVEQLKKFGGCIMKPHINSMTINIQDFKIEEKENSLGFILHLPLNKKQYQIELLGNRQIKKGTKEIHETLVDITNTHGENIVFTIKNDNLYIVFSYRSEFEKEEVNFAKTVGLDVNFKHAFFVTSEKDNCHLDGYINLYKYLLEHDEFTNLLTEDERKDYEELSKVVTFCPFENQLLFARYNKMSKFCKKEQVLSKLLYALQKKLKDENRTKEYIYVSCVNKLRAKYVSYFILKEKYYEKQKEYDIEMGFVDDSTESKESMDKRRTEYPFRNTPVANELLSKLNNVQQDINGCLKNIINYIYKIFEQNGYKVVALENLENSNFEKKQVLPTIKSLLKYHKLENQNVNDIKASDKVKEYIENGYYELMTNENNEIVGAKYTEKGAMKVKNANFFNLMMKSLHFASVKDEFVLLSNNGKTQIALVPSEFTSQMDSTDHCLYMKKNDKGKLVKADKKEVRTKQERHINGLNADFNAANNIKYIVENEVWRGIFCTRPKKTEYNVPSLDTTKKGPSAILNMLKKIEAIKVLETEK

[3] = target: T3, variant nuclease 7 substitutions D590G/E154G/E736G (P14R, D32R, I61R, E311R, D590G, E154G, E736G)
T3 chain: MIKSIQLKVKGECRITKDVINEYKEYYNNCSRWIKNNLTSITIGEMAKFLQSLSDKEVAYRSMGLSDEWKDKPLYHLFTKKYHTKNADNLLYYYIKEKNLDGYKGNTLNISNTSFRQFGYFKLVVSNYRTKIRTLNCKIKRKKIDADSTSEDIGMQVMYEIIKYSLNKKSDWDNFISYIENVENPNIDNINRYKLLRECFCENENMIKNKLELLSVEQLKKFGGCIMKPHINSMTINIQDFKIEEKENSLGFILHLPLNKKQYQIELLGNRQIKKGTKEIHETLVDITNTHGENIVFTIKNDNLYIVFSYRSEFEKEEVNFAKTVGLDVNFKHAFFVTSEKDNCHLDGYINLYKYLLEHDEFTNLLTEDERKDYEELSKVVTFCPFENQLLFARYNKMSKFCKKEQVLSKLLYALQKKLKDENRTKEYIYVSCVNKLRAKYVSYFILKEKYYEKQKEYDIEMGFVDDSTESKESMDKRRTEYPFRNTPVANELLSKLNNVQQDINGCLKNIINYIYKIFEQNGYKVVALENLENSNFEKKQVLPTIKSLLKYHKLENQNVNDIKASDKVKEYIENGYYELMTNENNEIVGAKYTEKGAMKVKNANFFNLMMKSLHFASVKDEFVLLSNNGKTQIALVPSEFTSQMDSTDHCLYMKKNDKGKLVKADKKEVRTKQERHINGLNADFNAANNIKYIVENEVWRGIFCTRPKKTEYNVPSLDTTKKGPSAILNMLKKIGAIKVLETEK

B1: EMX1 crRNA ; EMX1 target (ssRNA ; dsDNA)
RNA: CUUGUUGUAUAUGUCCUUUUAUAGGUAUUAAACAACCCGCCGCUUCCUGAGCCAUC
DNA 1: CCGCCGCTTCCTGAGCCATC
DNA 2: GATGGCTCAGGAAGCGGCGG
Q: B1 was tested. Which indel editing activity [1] did it give?
A: 10.5 fold of WT

Q: What about the indel editing activity [2] of the same binder?
A: 7.43 fold of WT

Q: And the indel editing activity [3]?
A: 10.7 fold of WT
